Test results reported in patent US20260139017A1, “COMPOSITIONS AND METHODS USING REELIN IN ALZHEIMER'S DISEASE” (The General Hospital Corporation, priority 2022, published 2026).

Assays:
[1] = tested on: pDAB1 (Tyr232); assay: HRECs treated 5 minutes with recombinant mini-RELN, pDAB1 western blot; format: cell-based, human; conditions: 5 minutes, 4 ug/mL recombinant protein
Description: For in vitro screening of constructs using recombinant mini-RELN on HRECs, the cells were cultured in EBM-2 media enriched with EGM-2 Single Quots (Lonza) at 37° C. and 5% CO2 and experimentally tested at passage 7. 24 h prior experiment, cells were plated on a 6-well plate at 500,000 cells/mL. Two hours before the experiment, the cells were washed with PBS to remove residual growth media and then incubated with a starving media including EBM-2, 1% GlutaMax+0.2% Normicin. Treatments was conducted using recombinant mini RELN constructs obtained from Innovagen and Recombinant Mouse Reelin Protein from R&D systems (3820-MR-025/CF). Each treatment was incubated for 5 minutes at 4 ug/mL concentration and cells were subsequently harvested in lysis buffer was applied constituted of RIPA (Cell signaling), proteases inhibitors (cOmplete™, Mini, EDTA-free Protease Inhibitor Cocktail, Roche), phosphatases inhibitors (PhosSTOP, Roche), 1 μL of proteasome inhibitor MG-132 10 mM, 1% Triton X 100. The lysates were scraped and centrifugated at 15000 rpm for 10 minutes at 4° C. Total protein levels were quantified via BCA assay. For Western Blotting, 3.5 ug protein homogenates were prepared under reducing and denaturing conditions using Laemmli buffer enriched with 10 mM DTT and 5 min boiling. Samples were electrophoretically separated in a 4-20% Gel at 90V and protein transferred to a PVDF membrane using iBlot™ 2 Dry Blotting System. The membrane was blocked using Intercept® (TBS) Blocking Buffer for 2 hours. We detected pDAB1 (Tyr232; 1:1000, rabbit, #3325 Cell signaling), and total protein staining (Licor). Antibodies were diluted using Intercept® (TBS) Blocking Buffer and incubated overnight at 4C under gentle shaking. Prior secondary antibody incubation, membranes were washed 2 times using TBS-T for 10 minutes. As secondary antibodies we used IR Dye 800n CW Goat-anti-Rabbit (925-32211, Licor) diluted 1:10000 in blocking buffer for 1 h at room temperature under gentle shaking. Membranes were washed three times with TBST-T prior IR detection using Odyssey imager. To quantify the results, each band was quantified using ImageJ and data expressed as pDABL:total protein ratio normalized to the control.

[2] = tested on: pDAB1 (Tyr232); assay: HRECs treated 5 minutes with HEK 293T-derived mini-RELN media, pDAB1 western blot; format: cell-based, human; conditions: HEK 293T-derived media 1:1, 1:4, 1:14, 5 minutes
Description: The effect of in vitro treatment with RELN or miniRELN protein was also evaluated. HRECs were cultured in EBM-2 media enriched with EGM-2 Single Quots (Lonza) at 37° C. and 5% CO2 and experimentally tested at passage 7. 24 h prior experiment, cells were plated on a 6-well plate at 500,000 cells/mL. Two hours before the experiment, the cells were washed with PBS to remove residual growth media and then incubated with a starving media including EBM-2, 1% GlutaMax+0,2% Normicin. Treatments was conducted using media derived from HEK 293T cells transiently transfected for 24 h with different mini-RELN constructs in the presence of Lipofectamine 2000. HEK-derived Lipofectamine2000-media was used as negative control. HEK 293T-derived media was tested at different ratio 1:1, 1:4, and 1:14 (Transfected media:Starving media). Each treatment was incubated for 5 minutes and cells were subsequently harvested in lysis buffer was applied constituted of RIPA (Cell signaling), proteases inhibitors (cOmplete™, Mini, EDTA-free Protease Inhibitor Cocktail, Roche), phosphatases inhibitors (PhosSTOP, Roche), 1 μL of proteasome inhibitor MG-132 10 mM, 1% Triton X 100. The lysates were scraped and centrifugated at 15000 rpm for 10 minutes at 4° C. Total protein levels were quantified via BCA assay. […] We detected pDAB1 (Tyr232; 1:1000, rabbit, #3325 Cell signaling), and Beta actin (1:5000, mouse, #66009-1-Ig, Proteintech. Antibodies were diluted using Intercept® (TBS) Blocking Buffer and incubated overnight at 4C under gentle shaking. Prior secondary antibody incubation, membranes were washes 2 times using TBS-T for 10 minutes. As secondary antibodies we used IR Dye 800n CW Goat-anti-Rabbit (925-32211, Licor) and IR Dye 680 CW Goat-anti-Mouse (925-68070, Licor) both diluted 1:10000 in blocking buffer for 1 h at room temperature under gentle shaking. Membranes were washed three times with TBS-T prior IR detection using Odyssey imager. To quantify the results, each band was quantified using ImageJ and data expressed as pDAB1:βActin ratio normalized to the control. […]

[3] = biological target: T1, NRP1 (Homo sapiens, UniProt O14786); assay: Bio-layer interferometry (BLI) of CTR-RELN-NRP-1 interactions; format: binding; conditions: immobilized biotinylated NRP1
T1 construct: purchased R&D 3870-N1-025
T1 sequence (O14786 22-644 isoform O14786-2 limits assumed): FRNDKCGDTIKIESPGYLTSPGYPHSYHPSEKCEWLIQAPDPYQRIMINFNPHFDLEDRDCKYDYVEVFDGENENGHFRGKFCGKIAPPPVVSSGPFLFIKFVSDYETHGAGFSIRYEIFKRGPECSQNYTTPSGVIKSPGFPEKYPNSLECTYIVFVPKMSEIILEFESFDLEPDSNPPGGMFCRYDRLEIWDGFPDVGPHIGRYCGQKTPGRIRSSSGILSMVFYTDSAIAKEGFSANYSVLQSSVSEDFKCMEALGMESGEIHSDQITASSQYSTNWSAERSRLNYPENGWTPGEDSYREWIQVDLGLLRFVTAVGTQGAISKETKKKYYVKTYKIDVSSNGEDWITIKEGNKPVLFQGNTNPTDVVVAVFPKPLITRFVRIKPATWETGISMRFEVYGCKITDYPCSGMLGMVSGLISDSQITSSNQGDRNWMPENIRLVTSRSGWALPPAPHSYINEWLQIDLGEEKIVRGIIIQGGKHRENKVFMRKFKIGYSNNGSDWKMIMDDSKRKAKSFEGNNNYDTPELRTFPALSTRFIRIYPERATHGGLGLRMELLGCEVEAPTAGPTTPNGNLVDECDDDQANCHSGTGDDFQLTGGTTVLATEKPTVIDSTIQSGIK
Description: (§1) Bio-layer interferometry (BLI) was additionally used to assess NRP1-protein kinetics at 30° C. and 1000 rpm agitation. 1 mg/mL NRP1 (R&D 3870-N1-025) was biotinylated at a 1:2 molar ratio, desalted, and immobilized on the SA biosensor tip (Pall ForteBio) surface. This was followed by 1) 180 seconds baseline buffer diluent, 2) loading of the ligand (NRP1), 3) 180 seconds baseline buffer diluent, 4) 240 seconds association (analyte), and 5) 300 seconds disassociation in assay buffer. Assay buffer: SD Buffer (pH7.4 PBS, 0.05% tween20, 0.01% BSA).
The experimental data were fit with the 1:1 binding model and analyzed with global fitting using Octet Data Analysis software to calculate KD.
as §1, with “was” for “was additionally”, “agitation using previously published methods.” for “agitation.”

B1: hG2Fc-R5-6-C-termH3447R (protein)
chain: MYRMQLLSCIALSLALVTNSAPLERKSSVECPPCPAPPVAGPSVFLFPPKPKDTLMISRTPEVTCVVVDVSHEDPEVQFNWYVDGVEVHNAKTKPREEQFNSTFRVVSVLTVVHQDWLNGKEYKCKVSNKGLPAPIEKTISKTKGQPREPQVYTLPPSREEMTKNQVSLTCLVKGFYPSDIAVEWESNGQPENNYKTTPPMLDSDGSFFLYSKLTVDKSRWQQGNVFSCSVMHEALHNHYTQKSLSLSPGARTGGGGSGGGGSQTNATRFRLWQPYNNGKKEEIWIVDDFIIDGNNVNNPVMLLDTFDFGPREDNWFFYPGGNIGLYCPYSSKGAPEEDSAMVFVSNEVGEHSITTRDLNVNENTIIQFEINVGCSTDSSSADPVRLEFSRDFGATWHLLLPLCYHSSSHVSSLCSTEHHPSSTYYAGTMQGWRREVVHFGKLHLCGSVRFRWYQGFYPAGSQPVTWAIDNVYIGPQCEEMCNGQGSCINGTKCICDPGYSGPTCKISTKNPDFLKDDFEGQLESDRFLLMSGGKPSRKCGILSSGNNLFFNEDGLRMLMTRDLDLSHARFVQFFMRLGCGKGVPDPRSQPVLLQYSLNGGLSWSLLQEFLFSNSSNVGRYIALEIPLKARSGSTRLRWWQPSENGHFYSPWVIDQILIGGNISGNMVLEDDFTTLDSRKWLLHPGGTKMPVCGSTGDALVFIEKASTRYVVSTDVAVNEDSFLQIDFAVSCSVTDSCYAIELEYSVDLGLSWHPLVRDCLPTNVECSRYHLQRILVSDTFNKWTRITLPLPPYTRSQATRFRWHQPAPFDKQQTWAIDNVYIGDGCIDMCSGHGRCIQGNCVCDEQWGGLYCDDPETSLPTQLKDNFNRAPSSQNWLTVNGGKLSTVCGAVASGMALHFSGGCSRLLVTVDLNLTNAEFIQFYFMYGCLITPNNRNQGVLLEYSVNGGITWNLLMEIFYDQYSKPGFVNILLPPDAKEIATRFRWWQPRHDGLDQNDWAIDNVLISGSASTRKQNYMMNFSRQHGLRRFYNRRRRSLRRYP
- pDAB1 levels [1]: increased pDAB1 levels

B2: IL2ss-6xHis-FspCR50-R6-R6 Cterm RELN-H3447R (protein)
chain: MYRMQLLSCIALSLALVTNSGGHHHHHHGGGAAGYYPRFSPFFFLCTHHGELEGDGEQGEVLISLHIAGNPTYYVPGQEYHVTISTSTFFDGLLVTGLYTSTSVQASQSIGGSSAFGFGIMSDHQFGNQFMCSVVASHVSHLPTTNLSFIWIAPPAGTGCVNFMATATHRGQVIFKDALAQQLCEQGAPTDVTVHPHLAEIHSDSIILRDDFDSYHQLQLNPNIWVECNNCETGEQCGAIMHGNAVTFCEPYGPRELITTGLNTTTASVLQFSIGSGSCRFSYSDPSIIVLYAKNNSADWIQLEKIRAPSNVSTIIHILYLPEDAKGENVQFQWKQENLRVGEVYEACWALDNILIINGGSRTLDSRKWLLHPGGTKMPVCGSTGDALVFIEKASTRYVVSTDVAVNEDSFLQIDFAVSCSVTDSCYAIELEYSVDLGLSWHPLVRDCLPTNVECSRYHLQRILVSDTFNKWTRITLPLPPYTRSQATRFRWHQPAPFDKQQTWAIDNVYIGDGCIDMCSGHGRCIQGNCVCDEQWGGLYCDDPETSLPTQLKDNFNRAPSSQNWLTVNGGKLSTVCGAVASGMALHFSGGCSRLLVTVDLNLTNAEFIQFYFMYGCLITPNNRNQGVLLEYSVNGGITWNLLMEIFYDQYSSGGGTLDSRKWLLHPGGTKMPVCGSTGDALVFIEKASTRYVVSTDVAVNEDSFLQIDFAVSCSVTDSCYAIELEYSVDLGLSWHPLVRDCLPTNVECSRYHLQRILVSDTFNKWTRITLPLPPYTRSQATRFRWHQPAPFDKQQTWAIDNVYIGDGCIDMCSGHGRCIQGNCVCDEQWGGLYCDDPETSLPTQLKDNFNRAPSSQNWLTVNGGKLSTVCGAVASGMALHFSGGCSRLLVTVDLNLTNAEFIQFYFMYGCLITPNNRNQGVLLEYSVNGGITWNLLMEIFYDQYSTGGSGGSTRKQNYMMNFSRQHGLRRFYNRRRRSLRRYP
- pDAB1 / Dab1 signaling activation [2]: efficacy

B3: pfcn-huIgG2-C-termH3447R (protein)
chain: MYRMQLLSCIALSLALVTNSAPLERKSSVECPPCPAPPVAGPSVFLFPPKPKDTLMISRTPEVTCVVVDVSHEDPEVQFNWYVDGVEVHNAKTKPREEQFNSTFRVVSVLTVVHQDWLNGKEYKCKVSNKGLPAPIEKTISKTKGQPREPQVYTLPPSREEMTKNQVSLTCLVKGFYPSDIAVEWESNGQPENNYKTTPPMLDSDGSFFLYSKLTVDKSRWQQGNVFSCSVMHEALHNHYTQKSLSLSPGARTSTRKQNYMMNFSRQHGLRRFYNRRRRSLRRYP
- ka [3]: 12900 M⁻¹ s⁻¹
- kd [3]: 0.00102 s⁻¹
